Source: article PMC3024583
Positions count from the first letter of the chain named. Read-outs that look alike come from different tables or passages of the source.

Key:
Experiment in all cases: EMSA
[1] = biological target: T1, CSL (CBF1);Notch1 RAMANK wild-type;MAML1 (human?;human;human?, UniProt Q06330;P46531;Q92585 23-449;1760-2126;13-74, ||)
[2] = biological target: T1, CSL (CBF1);Notch1 RAMANK wild-type;MAML1; remark: listed apart in the source
[3] = biological target: CSL (CBF1);Notch1 RAMANK R1985A;MAML1 (human?;human;human?, UniProt Q06330;P46531;Q92585 23-449;1760-2126;13-74, |R1984A|)
CSL (CBF1);Notch1 RAMANK R1985A;MAML1, sequence (Q06330 23-449, chain 1 of 3): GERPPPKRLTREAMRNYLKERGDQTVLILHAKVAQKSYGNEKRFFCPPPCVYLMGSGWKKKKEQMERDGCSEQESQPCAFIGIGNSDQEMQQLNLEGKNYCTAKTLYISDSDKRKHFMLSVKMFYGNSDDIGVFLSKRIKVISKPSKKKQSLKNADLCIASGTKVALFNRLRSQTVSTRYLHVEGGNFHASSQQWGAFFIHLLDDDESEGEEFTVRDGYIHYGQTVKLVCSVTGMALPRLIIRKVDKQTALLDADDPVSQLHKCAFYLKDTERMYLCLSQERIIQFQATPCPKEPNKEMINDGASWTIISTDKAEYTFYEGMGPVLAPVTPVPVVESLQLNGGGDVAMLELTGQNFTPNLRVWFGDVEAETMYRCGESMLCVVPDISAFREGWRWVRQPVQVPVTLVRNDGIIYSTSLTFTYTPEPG
CSL (CBF1);Notch1 RAMANK R1985A;MAML1, sequence (P46531 1760-2126 R1984A, chain 2 of 3): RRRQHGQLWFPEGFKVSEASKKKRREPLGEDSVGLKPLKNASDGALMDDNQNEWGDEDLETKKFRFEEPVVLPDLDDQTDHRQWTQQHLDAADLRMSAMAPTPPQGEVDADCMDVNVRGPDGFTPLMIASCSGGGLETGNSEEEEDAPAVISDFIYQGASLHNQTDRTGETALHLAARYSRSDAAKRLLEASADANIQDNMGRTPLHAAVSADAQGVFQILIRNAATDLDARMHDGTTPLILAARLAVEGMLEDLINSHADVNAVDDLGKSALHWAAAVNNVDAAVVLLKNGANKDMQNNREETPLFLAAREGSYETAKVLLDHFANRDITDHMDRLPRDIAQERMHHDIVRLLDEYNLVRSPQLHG
CSL (CBF1);Notch1 RAMANK R1985A;MAML1, sequence (Q92585 13-74, chain 3 of 3): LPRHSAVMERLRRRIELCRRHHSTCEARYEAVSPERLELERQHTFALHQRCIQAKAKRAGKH

[4] = biological target: T1, CSL (CBF1);Notch1 RAMANK wild-type;MAML1; remark: listed apart in the source
[5] = biological target: T1, CSL (CBF1);Notch1 RAMANK wild-type;MAML1; remark: listed apart in the source
[6] = biological target: T1, CSL (CBF1);Notch1 RAMANK wild-type;MAML1; remark: listed apart in the source
[7] = biological target: T1, CSL (CBF1);Notch1 RAMANK wild-type;MAML1; remark: listed apart in the source

T1 sequence (Q06330 23-449, chain 1 of 3): as the sequence (Q06330 23-449, chain 1 of 3) above
T1 sequence (P46531 1760-2126, chain 2 of 3): as the sequence (P46531 1760-2126 R1984A, chain 2 of 3) above, with A225R counted along it
T1 sequence (Q92585 13-74, chain 3 of 3): as the sequence (Q92585 13-74, chain 3 of 3) above

B1: 15bp SPS (SYT14) (dsDNA)
DNA 1: GCCAAACATGGGAAATTGCTGCTATTCTTTTCCCACTACAGCC
DNA 2: GGCTGTAGTGGGAAAAGAATAGCAGCAATTTCCCATGTTTGGC
B1: binds [1].

B2: FJX1 SPS (dsDNA)
DNA 1: GGACCTGTGAATCGCGCCCACCGGAGGGTCTCACAAGC
DNA 2: GCTTGTGAGACCCTCCGGTGGGCGCGATTCACAGGTCC
B2: binds [2].

B3: Single-site control (dsDNA)
DNA 1: GGAAACACGCCGTGGGAAAAAATTTGGC
DNA 2: GCCAAATTTTTTCCCACGGCGTGTTTCC
B3: binds [3]; binds [4].

B4: HES5_E_long human (dsDNA)
DNA 1: GCGGAGTGTGGGAACGGCCGCGGCGCCCGGACTCCAGGCGCCAGGCCGC
DNA 2: GCGGCCTGGCGCCTGGAGTCCGGGCGCCGCGGCCGTTCCCACACTCCGC
B4: binds [5].

B5: Hes5_E_long mouse (dsDNA)
DNA 1: B4 DNA 1 with G3C, T33C, A43G
DNA 2: B4 DNA 2 with T7C, A17G, C47G
B5: binds [5].

B6: HES1 SPS (dsDNA)
DNA 1: AGTTACTGTGGGAAAGAAAGTTTGGGAAGTTTCACACGAGCCGTTC
DNA 2: GAACGGCTCGTGTGAAACTTCCCAAACTTTCTTTCCCACAGTAACT
B6: binds [6].

B7: HES4 SPS (dsDNA)
DNA 1: GGCGAGTGTGGGAAAGAATGCGGAGCCGGGTTCACACACCCCGCGG
DNA 2: CCGCGGGGTGTGTGAACCCGGCTCCGCATTCTTTCCCACACTCGCC
B7: binds [2].

B8: 17bp SPS (CUL1) (dsDNA)
DNA 1: GAATTACGTGGGAATTATAAATAAATTACTCTTCACACTCTTATCC
DNA 2: GGATAAGAGTGTGAAGAGTAATTTATTTATAATTCCCACGTAATTC
B8: binds [7].
